Measurements from IntAct's records for PubMed 25938661.

B1: Repulsive guidance molecule B (Homo sapiens), Q6NW40 (parent)
chain: MGLRAAPSSAAAAAAEVEQRRSPGLCPPPLELLLLLLFSLGLLHAGDCQQPAQCRIQKCTTDFVSLTSHLNSAVDGFDSEFCKALRAYAGCTQRTSKACRGNLVYHSAVLGISDLMSQRNCSKDGPTSSTNPEVTHDPCNYHSHAGAREHRRGDQNPPSYLFCGLFGDPHLRTFKDNFQTCKVEGAWPLIDNNYLSVQVTNVPVVPGSSATATNKITIIFKAHHECTDQKVYQAVTDDLPAAFVDGTTSGGDSDAKSLRIVERESGHYVEMHARYIGTTVFVRQVGRYLTLAIRMPEDLAMSYEESQDLQLCVNGCPLSERIDDGQGQVSAILGHSLPRTSLVQAWPGYTLETANTQCHEKMPVKDIYFQSCVFDLLTTGDANFTAAAHSALEDVEALHPRKERWHIFPSSGNGTPRGGSDLSVSLGLTCLILIVFL
partner: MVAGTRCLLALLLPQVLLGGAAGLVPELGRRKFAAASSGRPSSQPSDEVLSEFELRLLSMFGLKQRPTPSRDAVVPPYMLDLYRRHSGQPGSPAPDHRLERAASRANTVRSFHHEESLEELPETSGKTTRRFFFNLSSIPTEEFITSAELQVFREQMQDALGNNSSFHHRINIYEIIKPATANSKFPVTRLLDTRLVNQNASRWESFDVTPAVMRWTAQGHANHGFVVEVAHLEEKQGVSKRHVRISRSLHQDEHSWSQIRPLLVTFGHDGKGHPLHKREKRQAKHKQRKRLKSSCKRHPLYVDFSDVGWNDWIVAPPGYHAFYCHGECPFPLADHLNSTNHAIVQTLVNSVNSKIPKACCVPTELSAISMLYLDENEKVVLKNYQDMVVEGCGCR
B2: Hemojuvelin (Homo sapiens), Q6ZVN8-1 (parent)
chain: MGEPGQSPSPRSSHGSPPTLSTLTLLLLLCGHAHSQCKILRCNAEYVSSTLSLRGGGSSGALRGGGGGGRGGGVGSGGLCRALRSYALCTRRTARTCRGDLAFHSAVHGIEDLMIQHNCSRQGPTAPPPPRGPALPGAGSGLPAPDPCDYEGRFSRLHGRPPGFLHCASFGDPHVRSFHHHFHTCRVQGAWPLLDNDFLFVQATSSPMALGANATATRKLTIIFKNMQECIDQKVYQAEVDNLPVAFEDGSINGGDRPGGSSLSIQTANPGNHVEIQAAYIGTTIIIRQTAGQLSFSIKVAEDVAMAFSAEQDLQLCVGGCPPSQRLSRSERNRRGAITIDTARRLCKEGLPVEDAYFHSCVFDVLISGDPNFTVAAQAALEDARAFLPDLEKLHLFPSDAGVPLSSATLLAPLLSGLFVLWLCIQ
partner: B1 partner

Variants of: B1
Conditions: with bmp2_human BMP2, P12643

effect of a mutation on the interaction	Variant
decreasing interaction strength	MGLRAAPSSAAAAAAEVEQRRSPGLCPPPLELLLLLLFSLGLLHAGDCQQPAQCRIQKCTTDFVSLTSHLNSAVDGFDSEFCKALRAYAGCTQRTSKACRGNLVYRSAVLGISDLMSQRNCSKDGPTSSTNPEVTHDPCNYHSHAGAREHRRGDQNPPSYLFCGLFGDPHLRTFKDNFQTCKVEGAWPLIDNNYLSVQVTNVPVVPGSSATATNKITIIFKAHHECTDQKVYQAVTDDLPAAFVDGTTSGGDSDAKSLRIVERESGHYVEMHARYIGTTVFVRQVGRYLTLAIRMPEDLAMSYEESQDLQLCVNGCPLSERIDDGQGQVSAILGHSLPRTSLVQAWPGYTLETANTQCHEKMPVKDIYFQSCVFDLLTTGDANFTAAAHSALEDVEALHPRKERWHIFPSSGNGTPRGGSDLSVSLGLTCLILIVFL [H106R]

Variants of: B2
Conditions: with bmp2_human BMP2, P12643

effect of a mutation on the interaction	Variant
decreasing interaction strength	MGEPGQSPSPRSSHGSPPTLSTLTLLLLLCGHAHSQCKILRCNAEYVSSTLSLRGGGSSGALRGGGGGGRGGGVGSGGLCRALRSYALCTRRTARTCRGDPAFHSAVHGIEDLMIQHNCSRQGPTAPPPPRGPALPGAGSGLPAPDPCDYEGRFSRLHGRPPGFLHCASFGDPHVRSFHHHFHTCRVQGAWPLLDNDFLFVQATSSPMALGANATATRKLTIIFKNMQECIDQKVYQAEVDNLPVAFEDGSINGGDRPGGSSLSIQTANPGNHVEIQAAYIGTTIIIRQTAGQLSFSIKVAEDVAMAFSAEQDLQLCVGGCPPSQRLSRSERNRRGAITIDTARRLCKEGLPVEDAYFHSCVFDVLISGDPNFTVAAQAALEDARAFLPDLEKLHLFPSDAGVPLSSATLLAPLLSGLFVLWLCIQ [L101P]
decreasing interaction strength	MGEPGQSPSPRSSHGSPPTLSTLTLLLLLCGHAHSQCKILRCNAEYVSSTLSLRGGGSSGALRGGGGGGRGGGVGSGGLCRALRSYALCTRRTARTCRRDLAFHSAVHGIEDLMIQHNCSRQGPTAPPPPRGPALPGAGSGLPAPDPCDYEGRFSRLHGRPPGFLHCASFGDPHVRSFHHHFHTCRVQGAWPLLDNDFLFVQATSSPMALGANATATRKLTIIFKNMQECIDQKVYQAEVDNLPVAFEDGSINGGDRPGGSSLSIQTANPGNHVEIQAAYIGTTIIIRQTAGQLSFSIKVAEDVAMAFSAEQDLQLCVGGCPPSQRLSRSERNRRGAITIDTARRLCKEGLPVEDAYFHSCVFDVLISGDPNFTVAAQAALEDARAFLPDLEKLHLFPSDAGVPLSSATLLAPLLSGLFVLWLCIQ [G99R]
